# Results published in article PMC4743672.
# Target: HLCS-NLuc (Myc-HLCS fused to the N-terminal fragment of firefly luciferase) (human) (UniProt P50747)
# Test: split reporter
# UniProt P50747, sequence (P50747 whole entry, the tested form may be a part): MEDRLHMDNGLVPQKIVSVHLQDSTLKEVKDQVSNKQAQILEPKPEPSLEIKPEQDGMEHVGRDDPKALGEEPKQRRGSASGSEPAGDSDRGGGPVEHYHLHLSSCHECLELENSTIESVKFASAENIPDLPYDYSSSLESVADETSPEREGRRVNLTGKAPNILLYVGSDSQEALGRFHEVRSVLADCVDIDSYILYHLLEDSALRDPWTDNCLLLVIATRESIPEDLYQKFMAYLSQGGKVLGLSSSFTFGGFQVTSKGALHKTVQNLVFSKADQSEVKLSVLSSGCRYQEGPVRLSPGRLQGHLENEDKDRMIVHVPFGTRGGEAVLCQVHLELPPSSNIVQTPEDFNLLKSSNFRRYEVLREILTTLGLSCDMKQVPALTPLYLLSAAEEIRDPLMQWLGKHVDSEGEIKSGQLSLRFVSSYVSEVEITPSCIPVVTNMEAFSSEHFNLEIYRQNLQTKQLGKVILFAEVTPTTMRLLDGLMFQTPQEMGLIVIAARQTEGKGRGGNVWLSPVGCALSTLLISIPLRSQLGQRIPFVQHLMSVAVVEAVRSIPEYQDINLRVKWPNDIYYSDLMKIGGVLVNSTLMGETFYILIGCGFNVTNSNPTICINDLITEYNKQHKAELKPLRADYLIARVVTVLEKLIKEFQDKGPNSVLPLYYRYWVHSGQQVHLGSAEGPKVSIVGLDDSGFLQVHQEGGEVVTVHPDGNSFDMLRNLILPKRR
Substance,"luminescence signal, fold of TP53-NLuc plus CDK3-CLuc (negative control)","luminescence signal, fold of unfused NLuc plus CLuc (background control)"
HDAC1Δ31-CLuc (Myc-HDAC1Δ31 fused to the C-terminal fragment of firefly luciferase) (enzyme),2.4 fold,2.9 fold
N-CoR-CT-CLuc (Myc-N-CoR C-terminal domain fused to the C-terminal fragment of firefly luciferase) (domain or fragment),3.1 fold,3.7 fold
